{"source": "paper PMC13389011", "key": {"[1]": {"test_system": "Human insulin receptor ectodomain (HIR) (Homo sapiens), P06213-2+P06213-2", "sequence (P06213 other isoform, or with tags, fused parts or gaps, chain 1 of 2)": "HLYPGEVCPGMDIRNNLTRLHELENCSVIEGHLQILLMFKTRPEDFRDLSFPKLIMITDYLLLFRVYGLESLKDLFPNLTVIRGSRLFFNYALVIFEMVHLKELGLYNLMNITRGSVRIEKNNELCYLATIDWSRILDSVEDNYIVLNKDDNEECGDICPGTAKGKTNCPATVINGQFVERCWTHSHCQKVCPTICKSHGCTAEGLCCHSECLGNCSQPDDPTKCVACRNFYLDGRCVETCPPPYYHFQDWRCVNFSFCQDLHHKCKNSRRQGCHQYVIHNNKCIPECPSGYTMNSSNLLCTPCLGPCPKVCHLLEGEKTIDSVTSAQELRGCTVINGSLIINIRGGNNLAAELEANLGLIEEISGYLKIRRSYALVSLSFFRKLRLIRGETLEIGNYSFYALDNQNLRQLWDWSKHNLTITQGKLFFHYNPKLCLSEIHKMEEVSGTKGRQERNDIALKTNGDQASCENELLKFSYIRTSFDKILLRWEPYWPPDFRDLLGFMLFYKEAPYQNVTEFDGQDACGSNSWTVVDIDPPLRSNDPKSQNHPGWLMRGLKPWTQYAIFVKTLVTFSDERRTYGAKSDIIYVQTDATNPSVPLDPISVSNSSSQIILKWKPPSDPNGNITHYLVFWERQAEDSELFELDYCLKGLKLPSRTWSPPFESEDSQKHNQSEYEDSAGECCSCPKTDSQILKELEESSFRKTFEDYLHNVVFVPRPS", "sequence (P06213 763-956, chain 2 of 2)": "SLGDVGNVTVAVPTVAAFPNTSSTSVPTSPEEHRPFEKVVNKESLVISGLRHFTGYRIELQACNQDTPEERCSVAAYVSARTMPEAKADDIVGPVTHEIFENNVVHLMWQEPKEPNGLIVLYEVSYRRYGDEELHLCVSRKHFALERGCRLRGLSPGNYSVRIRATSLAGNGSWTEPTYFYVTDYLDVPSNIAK", "test": "ELONA", "conditions": "DNA backbone, PBS (1.5 mM KH2PO4, 8.1 mM Na2HPO4, 2.7 mM KCl, 137 mM NaCl) with 5 mM MgCl2, pH 7.4, MST with 0.1% Pluronic F-127 at 25 C, FNBA at room temperature, high values mean tight binding"}, "[2]": {"test_system": "Human insulin receptor ectodomain (HIR) (Homo sapiens), P06213-2+P06213-2", "test": "MST", "conditions": "DNA backbone, PBS (1.5 mM KH2PO4, 8.1 mM Na2HPO4, 2.7 mM KCl, 137 mM NaCl) with 5 mM MgCl2, pH 7.4, MST with 0.1% Pluronic F-127 at 25 C, FNBA at room temperature, high values mean tight binding"}, "[3]": {"biological_target": "Dog insulin receptor ectodomain (DIR) (dog) (UniProt A0A8I3PWD4)", "test": "MST", "conditions": "phenyl-dU (rigid) and indole-dA (flexible) after nt 20; IB: PBS (1.5 mM KH2PO4, 8.1 mM Na2HPO4, 2.7 mM KCl, 137 mM NaCl) + 5 mM MgCl2, pH 7.4; MST +0.1% Pluronic F-127, 25 C; SPR 25 C; FNBA and BLI r.t."}, "[4]": {"test_system": "Human insulin receptor ectodomain (HIR) (Homo sapiens), P06213-2", "sequence (P06213 other isoform, or with tags, fused parts or gaps)": "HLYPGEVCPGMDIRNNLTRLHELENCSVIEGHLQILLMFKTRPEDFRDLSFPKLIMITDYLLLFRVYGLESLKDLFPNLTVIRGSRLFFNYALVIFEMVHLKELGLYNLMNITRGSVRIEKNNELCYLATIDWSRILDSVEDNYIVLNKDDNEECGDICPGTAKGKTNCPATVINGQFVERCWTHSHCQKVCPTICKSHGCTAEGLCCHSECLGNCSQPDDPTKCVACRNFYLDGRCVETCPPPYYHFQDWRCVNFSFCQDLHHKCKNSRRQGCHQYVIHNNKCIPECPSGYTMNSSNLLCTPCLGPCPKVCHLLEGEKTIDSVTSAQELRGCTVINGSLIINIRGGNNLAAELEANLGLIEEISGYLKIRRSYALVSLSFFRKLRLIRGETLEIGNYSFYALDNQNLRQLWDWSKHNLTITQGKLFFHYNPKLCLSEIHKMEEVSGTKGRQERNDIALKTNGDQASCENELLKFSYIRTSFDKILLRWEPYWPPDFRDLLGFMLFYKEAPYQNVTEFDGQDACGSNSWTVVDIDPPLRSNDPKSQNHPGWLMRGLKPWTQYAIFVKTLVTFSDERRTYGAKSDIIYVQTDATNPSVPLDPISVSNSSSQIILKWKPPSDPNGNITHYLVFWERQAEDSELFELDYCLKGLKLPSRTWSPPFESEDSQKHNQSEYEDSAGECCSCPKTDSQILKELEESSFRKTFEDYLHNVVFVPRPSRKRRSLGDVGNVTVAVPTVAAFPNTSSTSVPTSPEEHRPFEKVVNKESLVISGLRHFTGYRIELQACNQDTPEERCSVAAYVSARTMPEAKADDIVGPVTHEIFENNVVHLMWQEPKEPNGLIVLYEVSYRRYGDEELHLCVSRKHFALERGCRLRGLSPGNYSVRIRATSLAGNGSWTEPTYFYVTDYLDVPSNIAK", "test": "MST", "conditions": "IB: PBS (1.5 mM KH2PO4, 8.1 mM Na2HPO4, 2.7 mM KCl, 137 mM NaCl) + 5 mM MgCl2, pH 7.4, MST +0.1% Pluronic F-127, 25 C, SPR 25 C, FNBA and BLI r.t."}, "[5]": {"biological_target": "Human IGF-1R ectodomain (Homo sapiens) (UniProt P08069+P08069)", "test": "MST", "conditions": "DNA backbone; 7-deaza-7-(indolyl-ethyl)-dA (dAAIn) at 27,28,32,33,35,39,48,51; 5-(phenyl-ethynyl)-dU (dUEPh) at 24,25,26,31,40,42,44,46,49,52,54; PBS (1.5 mM KH2PO4, 8.1 mM Na2HPO4, 2.7 mM KCl, 137 mM NaCl) with 5 mM MgCl2, pH 7.4; MST with 0.1% Pluronic F-127 at 25 C; FNBA at room temperature; high values mean tight binding"}, "[6]": {"test_system": "Human insulin receptor ectodomain (HIR) (Homo sapiens), P06213-2", "test": "SPR", "conditions": "after primer nt 1-20 every U = rigidly linked phenyl-dU and every A = flexibly linked indole-dA (nucleotides 1,2); DNA backbone; IB: PBS (1.5 mM KH2PO4, 8.1 mM Na2HPO4, 2.7 mM KCl, 137 mM NaCl) + 5 mM MgCl2, pH 7.4; MST +0.1% Pluronic F-127, 25 C; SPR 25 C; FNBA and BLI r.t."}, "[7]": {"biological_target": "T1, Cat insulin receptor ectodomain (CIR) (cat) (UniProt A0ABI7YJR5+A0ABI7YJR5)", "T1 sequence (chain, as listed by the source, chain 1 of 2)": "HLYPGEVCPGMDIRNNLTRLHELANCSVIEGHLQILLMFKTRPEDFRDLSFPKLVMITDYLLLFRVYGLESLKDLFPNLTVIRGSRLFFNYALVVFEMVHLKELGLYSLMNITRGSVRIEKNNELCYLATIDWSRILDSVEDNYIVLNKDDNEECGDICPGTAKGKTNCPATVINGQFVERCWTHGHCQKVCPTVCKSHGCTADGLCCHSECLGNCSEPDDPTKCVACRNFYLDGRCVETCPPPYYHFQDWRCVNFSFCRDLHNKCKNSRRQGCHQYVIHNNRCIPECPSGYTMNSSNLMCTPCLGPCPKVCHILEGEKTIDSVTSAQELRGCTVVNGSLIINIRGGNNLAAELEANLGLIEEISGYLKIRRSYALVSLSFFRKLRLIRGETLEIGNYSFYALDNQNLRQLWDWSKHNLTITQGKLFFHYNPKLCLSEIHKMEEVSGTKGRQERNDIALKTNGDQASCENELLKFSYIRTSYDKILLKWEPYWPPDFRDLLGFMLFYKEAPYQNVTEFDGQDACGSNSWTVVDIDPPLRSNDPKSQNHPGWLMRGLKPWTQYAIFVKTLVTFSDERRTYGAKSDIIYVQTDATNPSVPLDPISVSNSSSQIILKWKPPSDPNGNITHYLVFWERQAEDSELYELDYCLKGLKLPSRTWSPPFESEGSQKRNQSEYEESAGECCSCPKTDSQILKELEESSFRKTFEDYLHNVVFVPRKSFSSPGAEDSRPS", "T1 sequence (chain, as listed by the source, chain 2 of 2)": "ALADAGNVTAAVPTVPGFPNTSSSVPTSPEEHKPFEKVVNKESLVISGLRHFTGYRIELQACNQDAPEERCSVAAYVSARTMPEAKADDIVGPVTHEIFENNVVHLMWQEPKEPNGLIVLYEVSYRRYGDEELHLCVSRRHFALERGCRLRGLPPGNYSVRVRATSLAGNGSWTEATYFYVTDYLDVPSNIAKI", "test": "ELONA", "conditions": "DNA backbone; 7-deaza-7-(indolyl-ethyl)-dA (dAAIn) at 27,28,32,33,35,39,48,51; 5-(phenyl-ethynyl)-dU (dUEPh) at 24,25,26,31,40,42,44,46,49,52,54; PBS (1.5 mM KH2PO4, 8.1 mM Na2HPO4, 2.7 mM KCl, 137 mM NaCl) with 5 mM MgCl2, pH 7.4; MST with 0.1% Pluronic F-127 at 25 C; FNBA at room temperature; high values mean tight binding"}, "[8]": {"biological_target": "T2, Dog insulin receptor ectodomain (DIR) (dog) (UniProt A0A8I3PWD4+A0A8I3PWD4)", "T2 sequence (chain, as listed by the source, chain 1 of 2)": "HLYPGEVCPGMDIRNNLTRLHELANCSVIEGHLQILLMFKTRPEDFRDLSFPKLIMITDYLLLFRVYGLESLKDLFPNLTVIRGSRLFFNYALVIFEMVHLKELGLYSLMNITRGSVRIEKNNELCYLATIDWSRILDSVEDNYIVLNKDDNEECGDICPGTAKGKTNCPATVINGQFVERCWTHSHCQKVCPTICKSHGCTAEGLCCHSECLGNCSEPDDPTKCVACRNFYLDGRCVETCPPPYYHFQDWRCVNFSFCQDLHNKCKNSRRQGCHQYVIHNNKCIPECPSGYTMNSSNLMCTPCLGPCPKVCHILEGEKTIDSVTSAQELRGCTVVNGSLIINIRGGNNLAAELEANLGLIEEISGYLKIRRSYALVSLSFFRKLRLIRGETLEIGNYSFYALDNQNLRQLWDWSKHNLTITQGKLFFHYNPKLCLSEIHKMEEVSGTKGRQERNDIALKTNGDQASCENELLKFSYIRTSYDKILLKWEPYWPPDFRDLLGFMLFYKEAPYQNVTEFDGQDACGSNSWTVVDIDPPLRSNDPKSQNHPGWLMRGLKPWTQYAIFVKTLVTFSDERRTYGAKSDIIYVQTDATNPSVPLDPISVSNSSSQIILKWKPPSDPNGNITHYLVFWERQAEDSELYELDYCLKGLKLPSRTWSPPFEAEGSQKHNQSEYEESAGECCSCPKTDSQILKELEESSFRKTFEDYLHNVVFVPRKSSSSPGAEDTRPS", "T2 sequence (chain, as listed by the source, chain 2 of 2)": "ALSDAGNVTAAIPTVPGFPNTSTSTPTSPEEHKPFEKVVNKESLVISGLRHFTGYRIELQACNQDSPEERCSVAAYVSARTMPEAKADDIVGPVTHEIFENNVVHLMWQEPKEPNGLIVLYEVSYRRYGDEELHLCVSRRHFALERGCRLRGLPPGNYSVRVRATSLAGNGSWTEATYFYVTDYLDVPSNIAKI", "test": "ELONA", "conditions": "DNA backbone; 7-deaza-7-(indolyl-ethyl)-dA (dAAIn) at 27,28,32,33,35,39,48,51; 5-(phenyl-ethynyl)-dU (dUEPh) at 24,25,26,31,40,42,44,46,49,52,54; PBS (1.5 mM KH2PO4, 8.1 mM Na2HPO4, 2.7 mM KCl, 137 mM NaCl) with 5 mM MgCl2, pH 7.4; MST with 0.1% Pluronic F-127 at 25 C; FNBA at room temperature; high values mean tight binding"}, "[9]": {"biological_target": "T1, Cat insulin receptor ectodomain (CIR) (cat)", "test": "MST", "conditions": "DNA backbone; 7-deaza-7-(indolyl-ethyl)-dA (dAAIn) at 27,28,32,33,35,39,48,51; 5-(phenyl-ethynyl)-dU (dUEPh) at 24,25,26,31,40,42,44,46,49,52,54; PBS (1.5 mM KH2PO4, 8.1 mM Na2HPO4, 2.7 mM KCl, 137 mM NaCl) with 5 mM MgCl2, pH 7.4; MST with 0.1% Pluronic F-127 at 25 C; FNBA at room temperature; high values mean tight binding"}, "[10]": {"biological_target": "T2, Dog insulin receptor ectodomain (DIR) (dog)", "test": "MST", "conditions": "DNA backbone; 7-deaza-7-(indolyl-ethyl)-dA (dAAIn) at 27,28,32,33,35,39,48,51; 5-(phenyl-ethynyl)-dU (dUEPh) at 24,25,26,31,40,42,44,46,49,52,54; PBS (1.5 mM KH2PO4, 8.1 mM Na2HPO4, 2.7 mM KCl, 137 mM NaCl) with 5 mM MgCl2, pH 7.4; MST with 0.1% Pluronic F-127 at 25 C; FNBA at room temperature; high values mean tight binding"}, "[11]": {"test_system": "Human insulin receptor ectodomain (HIR) (Homo sapiens), P06213-2", "test": "BLI", "conditions": "after primer nt 1-20 every U = rigidly linked phenyl-dU and every A = flexibly linked indole-dA (nucleotides 1,2); DNA backbone; IB: PBS (1.5 mM KH2PO4, 8.1 mM Na2HPO4, 2.7 mM KCl, 137 mM NaCl) + 5 mM MgCl2, pH 7.4; MST +0.1% Pluronic F-127, 25 C; SPR 25 C; FNBA and BLI r.t."}, "[12]": {"test_system": "Human insulin receptor isoform A, native (IM-9 cells) (Homo sapiens), P06213-2+P06213-2", "sequence (P06213 other isoform, or with tags, fused parts or gaps, chain 1 of 2)": "as the sequence (P06213 other isoform, or with tags, fused parts or gaps, chain 1 of 2) above", "sequence (P06213 763-1382, chain 2 of 2)": "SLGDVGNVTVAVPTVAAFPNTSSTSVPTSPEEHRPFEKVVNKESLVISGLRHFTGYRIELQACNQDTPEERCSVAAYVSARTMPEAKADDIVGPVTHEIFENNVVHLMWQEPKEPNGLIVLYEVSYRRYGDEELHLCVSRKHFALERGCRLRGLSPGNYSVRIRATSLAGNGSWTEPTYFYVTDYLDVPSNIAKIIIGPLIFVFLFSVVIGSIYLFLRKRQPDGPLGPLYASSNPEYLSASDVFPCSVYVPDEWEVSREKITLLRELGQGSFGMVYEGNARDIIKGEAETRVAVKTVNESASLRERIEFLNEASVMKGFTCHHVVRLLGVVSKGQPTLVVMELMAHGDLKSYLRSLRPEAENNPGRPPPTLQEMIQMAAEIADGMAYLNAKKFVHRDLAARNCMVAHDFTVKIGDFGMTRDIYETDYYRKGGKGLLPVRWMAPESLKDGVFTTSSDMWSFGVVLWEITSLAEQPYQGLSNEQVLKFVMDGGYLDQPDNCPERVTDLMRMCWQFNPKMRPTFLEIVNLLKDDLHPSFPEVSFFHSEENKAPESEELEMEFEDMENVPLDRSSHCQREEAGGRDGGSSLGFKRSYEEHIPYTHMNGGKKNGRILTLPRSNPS", "test": "competition with 125I-insulin", "conditions": "after primer nt 1-20 every U = rigidly linked phenyl-dU and every A = flexibly linked indole-dA (nucleotides 1,2); DNA backbone; IB: PBS (1.5 mM KH2PO4, 8.1 mM Na2HPO4, 2.7 mM KCl, 137 mM NaCl) + 5 mM MgCl2, pH 7.4; MST +0.1% Pluronic F-127, 25 C; SPR 25 C; FNBA and BLI r.t."}, "[13]": {"biological_target": "Insulin (Homo sapiens) (UniProt P01308)", "sequence (P01308 90-110)": "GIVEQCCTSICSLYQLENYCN", "test": "radioligand binding", "conditions": "cited from earlier work"}, "[14]": {"conditions": "7-deaza-7-(indolyl-ethyl)-dA (dAAIn) at 27,35,36,38,41,44,48,54, 5-(phenyl-ethynyl)-dU (dUEPh) at 21,22,23,32,33,37,40,45,46,50,53"}, "[15]": {"conditions": "7-deaza-7-(indolyl-ethyl)-dA (dAAIn) at 27,28,32,33,35,39,48,51, 5-(phenyl-ethynyl)-dU (dUEPh) at 24,25,26,31,40,42,44,46,49,52,54"}, "[16]": {"conditions": "7-deaza-7-(indolyl-ethynyl)-dA (dAEIn) at 27,28,32,33,35,39,48,51, 5-(phenyl-ethyl)-dU (dUAPh) at 24,25,26,31,40,42,44,46,49,52,54"}, "[17]": {"conditions": "7-deaza-7-(indolyl-ethynyl)-dA (dAEIn) at 27,28,32,33,35,39,48,51, 5-(phenyl-ethynyl)-dU (dUEPh) at 24,25,26,31,40,42,44,46,49,52,54"}, "[18]": {"conditions": "7-deaza-7-(indolyl-ethyl)-dA (dAAIn) at 27,28,32,33,35,39,48,51, 5-(phenyl-ethyl)-dU (dUAPh) at 24,25,26,31,40,42,44,46,49,52,54"}, "[19]": {"conditions": "7-deaza-7-(phenyl-ethyl)-dA (dAAPh) at 27,28,32,33,35,39,48,51, 5-(phenyl-ethynyl)-dU (dUEPh) at 24,25,26,31,40,42,44,46,49,52,54"}}, "note": "Values joined by “and” are separate entries in the source; they are usually repeats but may differ in a detail not shown here. Equal values may be shown once.", "data": [{"substance": "ACTGCACCTGGCCTTTAACTUUUCGCACGCGUUGAAUACUACCAUUGAGUCGUAG [HIR_SC]", "values": [{"measurement": "binding signal (a.u. fluorescence)", "setting": "[1]; [14]", "value": 266}, {"measurement": "binding (delta Fnorm (per mille))", "setting": "[2]; [14]", "value": -1.14}]}, {"substance": "CAACTTCTACCGGTCCATGTUUGUGAUGCCGACAGCUAGCAGCAAGUAAACGGUC [DIR-5]", "values": [{"measurement": "Kd", "setting": "[3]", "value": 19.2, "unit": "nM"}]}, {"substance": "CATGACGCTCACTGTATCTCGCCUUUAACGUAAGAGCGAUGUCUCUCAUGAUGUC [HIR-8]", "values": [{"measurement": "binding signal (a.u. fluorescence)", "setting": "[1]; [15]", "value": 34500}, {"measurement": "binding (delta Fnorm (per mille))", "setting": "[2]; [15]", "value": 24.8}, {"measurement": "Kd", "setting": "[4]; as HIR-6: phenyl-dU (rigid) and indole-dA (flexible) after nt 20", "value": 11.7, "unit": "nM"}, {"measurement": "binding (delta Fnorm (per mille))", "setting": "[5]", "value": -0.562}]}, {"substance": "CATGACGCTCACTGTATCTCGCGTTTAACGUAACAGCGAUGUCUCUCAUGAUGUC [HIR-6_M1]", "values": [{"measurement": "binding signal (a.u. fluorescence)", "setting": "[1]; 7-deaza-7-(indolyl-ethyl)-dA (dAAIn) at 32,33,35,39,48,51, 5-(phenyl-ethynyl)-dU (dUEPh) at 31,40,42,44,46,49,52,54", "value": 205}]}, {"substance": "CATGACGCTCACTGTATCTCGCGUUUAACGUAACAGCGAUGUCUCUCAUGAUGUC [HIR-6]", "values": [{"measurement": "Kd", "setting": "[6]", "value": 0.306, "unit": "nM"}, {"measurement": "binding signal (a.u. fluorescence)", "setting": "[1]; [15]", "value": "45800 and 39500 and 44800"}, {"measurement": "binding signal (a.u. fluorescence)", "setting": "[7]", "value": 164}, {"measurement": "binding signal (a.u. fluorescence)", "setting": "[8]", "value": 272}, {"measurement": "binding (delta Fnorm (per mille))", "setting": "[2]; [15]", "value": 38.1}, {"measurement": "binding (delta Fnorm (per mille))", "setting": "[9]", "value": -0.745}, {"measurement": "Kd", "setting": "[4]; after primer nt 1-20 every U = rigidly linked phenyl-dU and every A = flexibly linked indole-dA (nucleotides 1,2), DNA backbone", "value": 2.25, "unit": "nM"}, {"measurement": "binding (delta Fnorm (per mille))", "setting": "[10]", "value": -1.86}, {"measurement": "binding (delta Fnorm (per mille))", "setting": "[5]", "value": 3.56}, {"measurement": "Kd", "setting": "[11]", "value": 0.137, "unit": "nM"}, {"measurement": "Ki", "setting": "[12]", "value": 68.8, "unit": "nM"}]}, {"substance": "CATGACGCTCACTGTATCTCGCGUUUAACGUAACAGCGAUGUCUCUCAUGAUGUC [HIR-6_V1]", "values": [{"measurement": "binding signal (a.u. fluorescence)", "setting": "[1]; [16]", "value": 742}, {"measurement": "binding (delta Fnorm (per mille))", "setting": "[2]; [16]", "value": -0.274}]}, {"substance": "CATGACGCTCACTGTATCTCGCGUUUAACGUAACAGCGAUGUCUCUCAUGAUGUC [HIR-6_V2]", "values": [{"measurement": "binding signal (a.u. fluorescence)", "setting": "[1]; [17]", "value": 644}, {"measurement": "binding (delta Fnorm (per mille))", "setting": "[2]; [17]", "value": 1.86}]}, {"substance": "CATGACGCTCACTGTATCTCGCGUUUAACGUAACAGCGAUGUCUCUCAUGAUGUC [HIR-6_V3]", "values": [{"measurement": "binding signal (a.u. fluorescence)", "setting": "[1]; [18]", "value": 196}, {"measurement": "binding (delta Fnorm (per mille))", "setting": "[2]; [18]", "value": -3.35}]}, {"substance": "CATGACGCTCACTGTATCTCGCGUUUAACGUAACAGCGAUGUCUCUCAUGAUGUC [HIR-6_V4]", "values": [{"measurement": "binding signal (a.u. fluorescence)", "setting": "[1]; [19]", "value": 195}, {"measurement": "binding (delta Fnorm (per mille))", "setting": "[2]; [19]", "value": -1.7}]}, {"substance": "Insulin receptor (from UniProt P06213)", "values": [{"measurement": "Kd", "setting": "[13]", "value": 0.3, "unit": "nM"}]}]}
